This assay addresses Gdown1 (in vitro, construct not stated) (UniProt P0CAP2).

Chain of Gdown1 (in vitro, construct not stated) (from UniProt P0CAP2-1 1-368) (natural protein) (P0CAP2 whole entry): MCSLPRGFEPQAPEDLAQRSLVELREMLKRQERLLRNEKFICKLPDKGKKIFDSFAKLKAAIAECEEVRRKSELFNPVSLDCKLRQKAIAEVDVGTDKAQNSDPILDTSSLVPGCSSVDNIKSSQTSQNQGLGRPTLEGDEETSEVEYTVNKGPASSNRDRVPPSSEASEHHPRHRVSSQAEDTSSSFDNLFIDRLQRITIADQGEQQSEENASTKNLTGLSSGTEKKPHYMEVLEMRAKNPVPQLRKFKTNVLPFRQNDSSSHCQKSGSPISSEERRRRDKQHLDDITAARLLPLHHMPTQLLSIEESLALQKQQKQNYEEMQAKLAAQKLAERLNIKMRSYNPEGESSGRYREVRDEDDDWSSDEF

Take “Gdown1 (in vitro, construct not stated) (from UniProt P0CAP2-1 1-368) (natural protein)”: the stoichiometry N – broadly, the number of molecules, sites or subunits per partner or assembly – was 2.

Values taken from article PMC3259531.
